The values below come from patent publication US20250197455A1.

The target of assay [1] is BG505 N28 502 660-665. As to the kind of experiment: supernatant ELISA; row BG505.RnS7Mut-N28-502-660-665.
The target in assay [2] is BG505 glycan-base trimer, VRC 7873 (4571_RnS7Mutv1-2G-3Mut-N28-JCBv3-N660-N665.667_613S_620S) (BG505-based) (HIV-1 (BG505, Clade A)). As to the kind of experiment: supernatant ELISA; row BG505.RnS7Mut-N28-JCBv3-660-665.
In assay [3] the target is BG505 N28 JCBv2 660-665. The assay is described as follows: supernatant ELISA; row BG505.RnS7Mut-N28-JCBv2-660-665.
The target in assay [4] is 6931-DS-N28-502-660-665. The assay is described as follows: supernatant ELISA; row scFc-3C-6931-DS-28-502-660-665.
Assay [5] concerns the target 6931-DS-N28-JCBv3-660. As to the kind of experiment: supernatant ELISA; row scFc-3C-6931-DS-28_JCB04V3-660.
The target in assay [6] is BG505 N28 JCBv3 660. As to the kind of experiment: supernatant ELISA; row BG505.RnS7Mut-N28-JCBv3-660.
For assay [7], the target named is protein-base BG505 trimer, BG505-RnS7Mutv1-DS-SOSIP-2G-3Mut (HIV-1 (BG505, Clade A)). As to the kind of experiment: supernatant ELISA; row BG505-RnS(7MutV1)-2G-3mut-DS_SOSIP-scFc.
In assay [8] the target is ConC glycan-base trimer, VRC 7678 (6931_DS-N28-JCBv3-N660-N665.667) (ConC based) (HIV-1 (consensus clade C, ConC)). As to the kind of experiment: supernatant ELISA; row scFc-3C-6931-DS-28_JCB04V3-660-665.

On to 3BNC117 (antibody), for which the ELISA OD450 (raw) came out at 0.841 OD450 in assay [1]; 0.981 OD450 in assay [2]; 0.952 OD450 in assay [3]; 1.03 OD450 in assay [4]; 1.13 OD450 in assay [5]; 1.01 OD450 in assay [6]. The substance further came in with an ELISA OD450 (raw) in assay [7] of 1.04 OD450.

With 35O22 (antibody), the ELISA OD450 (raw) in assay [1] came out at 0.785 OD450; in assay [2], 0.632 OD450; in assay [8], 0.954 OD450; in assay [3], 0.628 OD450; in assay [4] it was 0.916 OD450; in assay [6] it was 0.728 OD450. In assay [7], the ELISA OD450 (raw) turned out to be 1.01 OD450.

With F105 (antibody), the ELISA OD450 (raw) in assay [1] turned out to be 0.106 OD450; in assay [2], 0.157 OD450; in assay [3] it was 0.141 OD450; in assay [4] it was 0.337 OD450; in assay [5] it was 0.432 OD450; in assay [6] it was 0.196 OD450. The same substance had an ELISA OD450 (raw) in assay [7] of 0.134 OD450.

For the substance N6 (antibody), the ELISA OD450 (raw) was 0.666 OD450 in assay [1]; 0.795 OD450 in assay [2]; 0.816 OD450 in assay [3]; 0.876 OD450 in assay [4]; 0.918 OD450 in assay [5]; 0.771 OD450 in assay [6]. Besides, the ELISA OD450 (raw) in assay [7] turned out to be 0.811 OD450.

For the substance PGDM1400 (antibody), the ELISA OD450 (raw) in assay [1] came to 0.982 OD450; in assay [2], 1.07 OD450; in assay [8], 0.949 OD450; in assay [3], 1.03 OD450; in assay [4], 0.681 OD450; in assay [5], 0.861 OD450. Also, the ELISA OD450 (raw) was determined as 1.09 OD450 in assay [6] and 0.985 OD450 in assay [7].

On to PGT122 (antibody), for which the ELISA OD450 (raw) in assay [1] is 0.864 OD450; in assay [2] it was 0.874 OD450; in assay [8] it was 1.48 OD450; in assay [3], 1 OD450; in assay [6] it was 0.906 OD450; in assay [7] it was 1.05 OD450.

As for PGT145 (antibody), the ELISA OD450 (raw) in assay [1] came to 0.531 OD450; in assay [2], 0.219 OD450; in assay [4] it was 0.938 OD450; in assay [6], 0.427 OD450; in assay [7] it was 0.683 OD450.

As to VRC26.25 (antibody), the ELISA OD450 (raw) in assay [1] turned out to be 0.555 OD450; in assay [2], 0.564 OD450; in assay [8] it was 0.798 OD450; in assay [3] it was 0.544 OD450; in assay [4], 0.874 OD450; in assay [5], 0.979 OD450. Moreover, the results for the ELISA OD450 (raw) in assay [6] and in assay [7] were 0.652 OD450 and 0.71 OD450, respectively.

Turning to VRC34.01 (antibody), the ELISA OD450 (raw) is 0.437 OD450 in assay [1]; 0.682 OD450 in assay [2]; 1.05 OD450 in assay [8]; 0.729 OD450 in assay [3]; 0.718 OD450 in assay [4]; 0.89 OD450 in assay [5]. Also, the ELISA OD450 (raw) in assay [6] was 0.648 OD450; in assay [7], 0.783 OD450.
